Article PMC7429481 (British Journal of Pharmacology, 2020)

Legend:
[1] = target: T1, human SNAP‐GLP‐1 receptor (Homo sapiens, UniProt P43220); test: cAMP by HTRF in HEK293‐SNAP‐GLP‐1 receptor cells; type: cell-based; settings: 30 min incubation, n = 5
Method: Cells were stimulated with agonist for the indicated period in their respective growth mediums without FBS. […] At the end of the incubation period, cells were lysed and cAMP was determined by HTRF (cAMP Dynamic 2 kit, Cisbio) using a Spectramax i3x plate reader (Molecular Devices).

[2] = target: T1, human SNAP‐GLP‐1 receptor; test: GLP‐1 receptor recycling by TR‐FRET in CHO‐K1‐SNAP‐GLP‐1 receptor cells; type: cell-based; settings: H89 10 μM, exendin‐4 100 nM 30 min, n = 5

T1 sequence (P43220 24-463): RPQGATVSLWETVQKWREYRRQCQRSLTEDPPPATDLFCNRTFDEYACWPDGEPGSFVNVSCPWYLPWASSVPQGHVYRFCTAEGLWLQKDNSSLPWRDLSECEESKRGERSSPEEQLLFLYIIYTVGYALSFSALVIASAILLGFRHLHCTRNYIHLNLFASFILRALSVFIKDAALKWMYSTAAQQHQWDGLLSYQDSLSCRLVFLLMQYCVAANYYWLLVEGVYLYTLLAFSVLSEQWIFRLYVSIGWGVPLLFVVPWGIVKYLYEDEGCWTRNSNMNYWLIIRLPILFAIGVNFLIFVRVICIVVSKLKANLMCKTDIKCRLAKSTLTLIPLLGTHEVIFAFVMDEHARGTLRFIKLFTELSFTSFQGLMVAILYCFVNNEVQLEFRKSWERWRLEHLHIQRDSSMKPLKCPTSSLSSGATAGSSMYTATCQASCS

| Compound | cAMP signalling potency of FITC conjugate [1] | effect on GLP‐1 receptor recycling after exendin‐4 pretreatment [2] |
| --- | --- | --- |
| lixisenatide‐FITC: FITC‐conjugate of lixisenatide | reduced cAMP signalling potency | – |
| O=S(=O)(NCCNC/C=C/c1ccc(Br)cc1)c1cccc2cnccc12 [H89] | – | did not affect |
